Source: patent publication US20230416363A1 (KADMON, published 2023)

Columns and labels:
hPD-1-his [1] = biological target: T1, hPD-1-his (human, UniProt Q15116 25-167); assay: SPR, Exp. 3
T1 construct: domain: IgV domain; monomer in solution; biotin-labelled where captured by streptavidin; also called biotin-hPD-1-his

hPD-1-Fc [2] = biological target: T2, hPD-1-Fc (human, UniProt Q15116 25-167); assay: SPR, Exp. 3
T2 construct: domain: IgV domain; also called human PD-1-Fc; not shown: human IgG1 Fc
T2 sequence (Q15116 25-167 limits assumed): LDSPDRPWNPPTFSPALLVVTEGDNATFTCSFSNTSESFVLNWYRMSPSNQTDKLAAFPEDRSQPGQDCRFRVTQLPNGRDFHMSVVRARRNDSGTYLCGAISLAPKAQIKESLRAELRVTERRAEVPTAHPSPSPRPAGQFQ

[3] = biological target: T3, human PD-1 expressed on cells (human, UniProt Q15116 25-288); assay: flow cytometry, hPD-1-293 cells
T3 construct: whole, on cells
T3 sequence (Q15116 25-288): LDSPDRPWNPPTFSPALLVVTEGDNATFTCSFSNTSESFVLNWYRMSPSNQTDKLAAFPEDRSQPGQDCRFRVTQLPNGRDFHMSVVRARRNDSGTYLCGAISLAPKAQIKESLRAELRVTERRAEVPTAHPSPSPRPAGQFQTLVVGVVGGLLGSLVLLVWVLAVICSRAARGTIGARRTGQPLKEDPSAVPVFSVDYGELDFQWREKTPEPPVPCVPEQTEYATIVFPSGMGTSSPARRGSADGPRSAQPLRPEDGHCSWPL

hPD-1-his [4] = biological target: T1, hPD-1-his; assay: ELISA, PD-1-his on anti-his
hPD-1-Fc [5] = biological target: T2, hPD-1-Fc; assay: SPR Biacore T200, PD-1-Fc immobilised
[6] = biological target: T3, human PD-1 expressed on cells; assay: cell-based or functional assay
[7] = biological target: T3, human PD-1 expressed on cells; assay: flow cytometry, hPD1-Jurkat cells
hPD-1-his [8] = biological target: T1, hPD-1-his; assay: SPR Biacore T200, PD-1-his immobilised
hPD-1-Fc [9] = biological target: T2, hPD-1-Fc; assay: ELISA, hPD-1-Fc coated
hPD-1-Fc [10] = biological target: T2, hPD-1-Fc; assay: SPR Biacore, hPD1-Fc
hPD-1-Fc [11] = biological target: T2, hPD-1-Fc; assay: blocking ELISA, PD-1 to PD-L1
mPD-1-his = biological target: T4, mPD-1-his (mouse, UniProt Q02242 25-167, limits assumed); assay: SPR Biacore
T4 construct: domain: IgV domain
T4 sequence: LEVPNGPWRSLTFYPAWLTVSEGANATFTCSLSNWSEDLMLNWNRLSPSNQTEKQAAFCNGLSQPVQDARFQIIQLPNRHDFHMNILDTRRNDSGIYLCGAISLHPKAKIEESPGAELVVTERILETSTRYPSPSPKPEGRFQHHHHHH

mPD-1-Fc = biological target: T5, mPD-1-Fc (mouse; human, UniProt Q02242 25-167, limits assumed); assay: SPR Biacore
T5 construct: domain: IgV domain; not shown: human IgG1 Fc
T5 sequence (looked up): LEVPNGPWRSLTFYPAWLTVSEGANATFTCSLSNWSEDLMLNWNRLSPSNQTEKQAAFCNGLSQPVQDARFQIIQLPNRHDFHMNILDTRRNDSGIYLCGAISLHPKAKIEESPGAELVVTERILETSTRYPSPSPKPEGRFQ

[12] = biological target: T3, human PD-1 expressed on cells; assay: cell-based or functional assay; remark: listed apart in the source
hPD-1-his [13] = biological target: T1, hPD-1-his; assay: ELISA, biotin-PD-1-his on streptavidin
[14] = biological target: T3, human PD-1 expressed on cells; assay: flow cytometry, SEB-activated PBMC donor two
hPD-1-his [15] = biological target: T1, hPD-1-his; assay: SPR, Exp. 1
hPD-1-Fc [16] = biological target: T2, hPD-1-Fc; assay: SPR, Exp. 1
[17] = biological target: T6, hPD1 (soluble, ELISA of Example 20) (human, UniProt Q15116 25-167, limits assumed); assay: ELISA, hPD1
T6 sequence (Q15116 25-167 limits assumed): as the sequence (Q15116 25-167 limits assumed) above

[18] = biological target: T7, mPD1 (soluble, ELISA of Examples 20 and 24) (mouse, UniProt Q02242 25-167, limits assumed); assay: ELISA, mPD1
T7 construct: also called Biotin-mPD1
T7 sequence (looked up): T5 sequence (looked up)

[19] = biological target: T3, human PD-1 expressed on cells; assay: flow cytometry, activated PBMC donor two
hPD-1-his [20] = biological target: T1, hPD-1-his; assay: SPR, Exp. 4
[21] = biological target: T3, human PD-1 expressed on cells; assay: flow cytometry, activated PBMC donor FA
[22] = biological target: T3, human PD-1 expressed on cells; assay: cell-based or functional assay; remark: listed apart in the source
hPD-1-his [23] = biological target: T1, hPD-1-his; assay: ELISA, PD-1-his on streptavidin
hPD-1-Fc [24] = biological target: T2, hPD-1-Fc; assay: blocking ELISA, PD-1 to PD-L2
[25] = biological target: T3, human PD-1 expressed on cells; assay: flow cytometry, hPD1-Jurkat cells; remark: listed apart in the source
[26] = biological target: T3, human PD-1 expressed on cells; assay: flow cytometry, hPD1-293 cells
hPD-1-Fc [27] = biological target: T2, hPD-1-Fc; assay: ELISA, PD-1-Fc coated
hPD-1-his [28] = biological target: T1, hPD-1-his; assay: SPR, Exp. 2
hPD-1-Fc [29] = biological target: T2, hPD-1-Fc; assay: SPR, Exp. 2
[30] = biological target: T3, human PD-1 expressed on cells; assay: flow cytometry, hPD-1-Jurkat cells
[31] = biological target: T6, hPD1 (soluble, ELISA of Example 20); assay: blocking ELISA, hPD1 to hPDL1
[32] = biological target: T3, human PD-1 expressed on cells; assay: cell-based or functional assay; remark: listed apart in the source
hPD-1-Fc [33] = biological target: T2, hPD-1-Fc; assay: SPR, range over experiments
hPD-1-Fc [34] = biological target: T2, hPD-1-Fc; assay: blocking ELISA, hPD-1 to hPD-L1; parameters: unit not given here
hPD-1-his [35] = biological target: T1, hPD-1-his; assay: ELISA, PD-1-his on anti-his; remark: listed apart in the source
[36] = biological target: T3, human PD-1 expressed on cells; assay: flow cytometry, hPD1-293 cells; remark: listed apart in the source
[37] = biological target: T3, human PD-1 expressed on cells; assay: flow cytometry, SEB-activated PBMC donor

T1 sequence (Q15116 other isoform, or with tags, fused parts or gaps limits assumed): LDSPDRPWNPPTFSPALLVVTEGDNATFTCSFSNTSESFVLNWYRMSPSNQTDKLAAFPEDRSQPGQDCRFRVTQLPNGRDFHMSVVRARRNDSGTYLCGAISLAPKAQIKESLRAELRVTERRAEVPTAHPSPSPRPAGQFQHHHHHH

B1: 38B2 (antibody, V domains shown)
VH: EVQLLESGGGLVQPGGSLRLSCAASGFTFSSYWMSWVRQAPGKGLEWVSAISGSGGSTYYADSVKGRFTISRDNSKNTLYLQMNSLRAEDTAVYYCASSPLQWVDVWGQGTTVTVSS
VL: DIQMTQSPSSLSASVGDRVTITCRASESISSWLAWYQQKPGKAPKLLIYDASSLESGVPSRFSGSGSGTDFTLTISSLQPEDFATYYCQQGDSFPFTFGQGTKLEIK
notes: 24H9 derivative, IgG; also called 780_54; hPD1 Ab (38B2)
- Kd (hPD-1-his [1]): 0.932 nM
- Kd (hPD-1-Fc [2]): < 0.01 nM
- MFI, 5 nM [3]: 297 MFI
- EC50 (hPD-1-his [4]): 0.06 nM
- Kd (hPD-1-Fc [5]): 0.249 nM
- EC50, Promega blockade bioassay [6]: 0.154 µg/mL
- Fold induction [6]: 6.54 fold
- EC50 [7]: 0.16 nM
- MFI at 5 nM [7]: 91 MFI
- Kd (hPD-1-his [8]): 0.318 nM
- OD at 10 nM (hPD-1-Fc [9]): 1.05 OD
- Kd (hPD-1-Fc [10]): 0.147 nM
- koff (hPD-1-Fc [10]): 3.26e-05 s⁻¹
- kon (hPD-1-Fc [10]): 221000 M⁻¹ s⁻¹
- IC50 (hPD-1-Fc [11]): 2.37 nM
- Inhibition % at 50 nM (hPD-1-Fc [11]): 93.9%
- Inhibition, % at 5.56 nM (hPD-1-Fc [11]): 92.7%
- binding result (mPD-1-his): no binding
- binding result (mPD-1-Fc): no binding
- EC50, Promega blockade bioassay, Exp. 1 [12]: 0.189 µg/mL
- EC50, Promega blockade bioassay, Exp. 2 [12]: 0.135 µg/mL
- Fold induction at 12 µg/ml, Exp. 1 [12]: 7.61 fold
- Fold induction at 12 µg/ml, Exp. 2 [12]: 8.31 fold
- EC50 (hPD-1-his [13]): 0.081 nM
- MFI, 5 nM [14]: 55.3 MFI
- Kd (hPD-1-his [15]): 0.946 nM
- Kd (hPD-1-Fc [16]): < 0.033 nM
- EC50 [17]: 0.125 nM
- binding result [18]: no binding
- EC50 [19]: 0.1 nM
- MFI at 25 nM [19]: 16.7 MFI
- Kd (hPD-1-his [20]): 0.205 nM
- EC50 [21]: 0.15 nM
- MFI at 25 nM [21]: 16.6 MFI
- EC50 averaged from two experiments, Promega blockade bioassay [22]: 0.154 µg/mL
- IC50, Promega blockade bioassay [22]: 0.725 nM
- OD at 10 nM (hPD-1-his [23]): 1.04 OD
- IC50 (hPD-1-Fc [24]): 1.93 nM
- Inhibition, % at 3.7 nM (hPD-1-Fc [24]): 93.9%
- Inhibition, % at 100 nM (hPD-1-Fc [24]): 95.1%
- EC50 [25]: 0.137 nM
- EC50 [26]: 0.12 nM
- MFI at 5 nM [26]: 118 MFI
- EC50 (hPD-1-Fc [27]): 0.096 nM
- Kd (hPD-1-his [28]): 0.423 nM
- Kd (hPD-1-Fc [29]): < 0.01 nM
- MFI, 5 nM [30]: 60.8 MFI
- IC50 [31]: 4.25 nM
- EC50 (read off the curve) [32]: ~0.5 nM
- Kd (hPD-1-Fc [33]): 0.01 to 0.03 nM
- Inhibition at 50 nM (hPD-1-Fc [34]): 93.4
- OD at 10 nM (hPD-1-his [35]): 0.662 OD
- EC50 [36]: 0.267 nM
- MFI, 5 nM [37]: 64.2 MFI
